Square brackets hold non-standard residues; d marks the D form. Side chains are listed from the residue outwards. Ends that are not written are not given here. maleimide = maleimide: 4-arm PEG5k maleimide reacting with the C-terminal Cys thiol
Tests used:
[1] = test system: TCs over HUVECs monolayer; assay: Transendothelial migration of TCs over HUVEC monolayer; type: cell-based, human; settings: AHP-DRI-12 and PEG-tAHP-DRI 1 × 10^−6 M (AHP-DRI-12), Nec-1 30 × 10^–6 M, zVAD 100 × 10^–6 M; 48 h; compared with control; n = 3
Procedure: HUVECs (1 × 10^5) in DMEM were added into 24‐well plate transwell upper chambers and the medium was changed every 2 days. Using the EVOM resistance tester, the transendothelial resistance was measured daily. When the TEER resistance value was >200 Ωcm^2, the cells grew into a monolayer of tight connection. 2 × 10^5 GFP‐TCs were added into upper chambers. One milliliter DMEM containing 10% FBS was added into lower chambers overnight. AHP‐DRI‐12 and PEG‐tAHP‐DRI (1 ×10^–6 M AHP‐DRI‐12), Nec‐1 (30 × 10^–6 M), and zVAD (100 × 10^–6 M) were added in upper chambers, respectively. After incubation for 48 h, cells in lower chambers were observed by fluorescence microscope.^[ ^56 ^]

HUVECs = assay: MTT cytotoxicity assay; type: cell-based, human; settings: up to 10 × 10^−6 M, 24, 48, 72 h, n = 3
Procedure: To evaluate the cytotoxicity of DR6‐targeting peptides, MTT assay was conducted. Briefly, 4 × 10^3 HUVECs were added in 96‐well plates and grown overnight before incubating with AHP‐DRI‐12 and PEG‐tAHP‐DRI (0.1 × 10^–6, 1.0 × 10^–6, 10 ×10^–6 M AHP‐DRI‐12). After incubating for 24, 48, and 72 h, 100 µL of 0.5 mg mL^–1 MTT was added to each well, and the plates were incubated at 37 °C for 4 h. After the removal of the supernatant, the precipitate was dissolved in 150 µL dimethyl sulfoxide, and the absorbance was measured at 490 nm using a microplate reader.

[2] = DAPI staining of lung sections after injection of FITC-labeled ligand; type: in vivo; settings: FITC-labeled ligand intravenously, lungs isolated 30 min later, confocal
Procedure: FITC‐labeled AHP‐DRI‐12 and PEG‐tAHP‐DRI were injected intravenously and 30 min later, lungs were isolated to prepare frozen sections. The frozen sections were stained with DAPI. The representative images were taken on a confocal microscope.

In the case of “PEG-tAHP-DRI: tetra-(D-retro-inverso isomer of AHP-12) substitued 4-arm PEG5k ([dP][dT][dT][dA][dD][dI][dT]C([maleimide-4‑arm PEG5k]); also: four peptides on one 4-arm PEG5k)”, the TCs transendothelial migration [1] is reported as “significantly attenuated TCs transendothelial migration”, the HUVECs cell viability (HUVECs) is reported as “remained essentially unchanged” and the “binding potency and proteolytic stability in vivo by FITC fluorescence on lung frozen sections” value [2] is reported as “best proteolytic stability”.

Reference: article PMC8188212, “Multi‐Arm PEG/Peptidomimetic Conjugate Inhibitors of DR6/APP Interaction Block Hematogenous Tumor Cell Extravasation” (Advanced Science, 2021)
